B1: Fc domain without a β-amyloid fragment: control protein: mouse IgG1 Fc region with no amyloid binding sequence (protein)
chain: VPRDCGCKPCICTVPEVSSVFIFPPKPKDVLTITLTPKVTCVVVDISKDDPEVQFSWFVDDVEVHTAQTQPREEQFNSTFRSVSELPIMHQDWLNGKEFKCRVNSAAFPAPIEKTISKTKGRPKAPQVYTIPPPKEQMAKDKVSLTCMITDFFPEDITVEWQWNGQPAENYKNTQPIMNTNGSYFVYSKLNVQKSNWEAGNTFTCSVLHEGLHNHHTEKSLSHSPGK

Columns and labels:
[1] = biological target: T1, Aβ fibrils (aged Aβ 1-40) (Homo sapiens, UniProt P05067); test: Fibril binding assay; conditions: compound at 2 μM-200 fM dilutions; FIG. 9
T1 construct: 200 μM Aβ 1-40 peptide solution; purchased Bachem (Torrance, Calif.)
Procedure: The ability of a compound of the invention to modulate (e.g., inhibit or promote) the aggregation of natural β-AP when combined with the natural β-AP was examined using the Fibril binding assay. Natural β-AP (β-AP1-40) for use in the aggregation assays is commercially available from Bachem (Torrance, Calif.).
The following materials are needed for the Fibril binding assay: Millipore multifilter apparatus; 12×75 glass tubes; GF/F 25 mm glass filters; PBS/0.1% tween 20 at 4° C. (PBST); Aβ fibrils; radioactive compound; nonradioactive compound; Eppendorf repeat pipettor with tips; labels; forceps; and vacuum.
In this assay, each sample was run in triplicate. […]
The radioactively labeled compound was prepared using standard radioactive safety protocols by making a dilution into a PBS/0.1% tween-20 solution such that there was a final concentration of 20,000 dpm per 100 μL. […] The samples were covered with parafilm and incubated at 37° C. inside plastic radioactivity bags overnight.
To filter the samples, the filters were pre-wetted in a small volume of PBST. […] One minute counts were recorded, the data was plotted, and the Prism program (GraphPAD) was used to analyze the graph, according to the manufacturer's instructions.

amyloid plaques [2] = test: Immunohistochemistry: staining of amyloid plaques in brain sections with conditioned medium containing fusion proteins; type: binding; conditions: 20-22 week mice transgenic for Swedish mutation APP and presenilin M146L; COS conditioned medium; developed with anti-mouse antibody
Procedure: Twenty micron serial coronal brain sections were prepared from 20-22 week mice transgenic for both the Swedish mutation of amyloid precursor protein and presenilin M146L (Ref.). All incubations were performed at room temperature. Sections were washed once in 100 mM Tris, pH 7.4 (Tris buffer), incubated in 70% formic acid for 3 minutes, then washed three times in Tris buffer. Endogenous peroxidase activity was blocked by incubating for 20 minutes in 10% methanol, 3% hydrogen peroxide in 40 mM Tris, pH 7.4. Sections were washed three times in Tris buffer then incubated in 0.85% NaCl, 0.1% Triton X-100, 100 mM Tris pH 7.4 (Tris buffer A) for 5 minutes followed by […]) for 15 minutes. Sections were incubated overnight in conditioned medium from cells expressing secreted fusion proteins or anti-β-amyloid polyclonal antibody diluted 1/1000 in Tris buffer B. Sections were washed twice in Tris buffer A and once in Tris buffer B then incubated with biotin-conjugated anti-mouse antibody raised in donkey from Jackson Laboratories diluted 1/500 in Tris buffer A for 1 hour. Sections were washed twice in Tris buffer A and once in Tris buffer B then incubated with avidin-conjugated horse radish peroxidase using the ABC Immunohistochemistry kit from Vector Laboratories. […]

amyloid plaques [3] = test: In vivo clearing of amyloid plaques in a mouse model of Alzheimer's disease; conditions: direct infusion into the cerebral cortex in one hemisphere; APP Swedish/presenilin M146L transgenic mouse
Procedure: The ability of Aβ(16-30)-Fc to clear amyloid plaques in a mouse model of Alzheimer's disease was assessed. The fusion protein was administered to a mouse transgenic for both the Swedish mutation of amyloid precursor protein and presenilin M146L by direct infusion into the cerebral cortex in one hemisphere. The mouse was sacrificed and the amount of amyloid in brain sections was determined by Thioflavin S staining.

Sequence of amyloid plaques (P05067 672-711 limits assumed): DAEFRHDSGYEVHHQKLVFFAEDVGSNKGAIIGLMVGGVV
T1 sequence (P05067 672-711): as the sequence (P05067 672-711 limits assumed) above

Molecule	inhibition of Aβ aggregation (Fibril binding assay) [1]	staining of amyloid plaques in coronal brain sections (amyloid plaques [2])	plaque burden at the site of infusion compared to the control hemisphere (Thioflavin S staining) (amyloid plaques [3])
PPI-1019: compound tested in the Fibril binding assay; structure not given	effective inhibitors of Aβ aggregation	–	–
B1	–	No amyloid plaques were detected	no difference
